# Source: patent US7410801 (UNIVERSITY OF DELHI DEPARTMENT OF BIOCHEMISTRY, dated 2008)
# B1: D-cmyc fusion protein displayed on lambda phage λDcDL1 (other)
# chain (part 1 of 2): MTSKETFTHYQPQGNSDPAHTATAPGGLSAKAPAMTPLMLDTSSRKLVAWDGTTDGAAVGILAVAADQTSTTLTFYKSGTFRYEDVLWPEAASDETKKRTAFAGTAISIV
# chain (part 2 of 2): EQKLISEEDL
# notes: also called DcDL1 phages
# Target: mesothelin (UniProt Q13421 296-598)
# Test: ELISA, purified phages added to mesothelin coated wells
# Sequence of mesothelin (Q13421 other isoform, or with tags, fused parts or gaps limits assumed): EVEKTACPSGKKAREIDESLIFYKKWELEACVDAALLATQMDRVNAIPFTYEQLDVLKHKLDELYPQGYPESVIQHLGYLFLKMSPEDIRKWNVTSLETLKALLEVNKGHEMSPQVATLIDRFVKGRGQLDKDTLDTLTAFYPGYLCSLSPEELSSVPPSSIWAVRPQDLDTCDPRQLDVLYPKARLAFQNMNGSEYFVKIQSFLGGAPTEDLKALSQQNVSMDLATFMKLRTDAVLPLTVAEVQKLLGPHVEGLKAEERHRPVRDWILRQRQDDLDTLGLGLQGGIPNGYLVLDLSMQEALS
binder,measurement,value
B1,binding result,no binding
